Assay results published in article PMC9169620, “Helical self-assembly of a mucin segment suggests an evolutionary origin for von Willebrand factor tubules” (Proceedings of the National Academy of Sciences of the …, 2022).

B1: MUC2 D1D2D3 (residues 21 to 1259 followed by a His6 tag) (domain or fragment, human, UniProt Q02817 21-1259, looked up)
chain: SELQTEGRTRNHGHNVCSTWGNFHYKTFDGDVFRFPGLCDYNFASDCRGSYKEFAVHLKRGPGQAEAPAGVESILLTIKDDTIYLTRHLAVLNGAVVSTPHYSPGLLIEKSDAYTKVYSRAGLTLMWNREDALMLELDTKFRNHTCGLCGDYNGLQSYSEFLSDGVLFSPLEFGNMQKINQPDVVCEDPEEEVAPASCSEHRAECERLLTAEAFADCQDLVPLEPYLRACQQDRCRCPGGDTCVCSTVAEFSRQCSHAGGRPGNWRTATLCPKTCPGNLVYLESGSPCMDTCSHLEVSSLCEEHRMDGCFCPEGTVYDDIGDSGCVPVSQCHCRLHGHLYTPGQEITNDCEQCVCNAGRWVCKDLPCPGTCALEGGSHITTFDGKTYTFHGDCYYVLAKGDHNDSYALLGELAPCGSTDKQTCLKTVVLLADKKKNVVVFKSDGSVLLNELQVNLPHVTASFSVFRPSSYHIMVSMAIGVRLQVQLAPVMQLFVTLDQASQGQVQGLCGNFNGLEGDDFKTASGLVEATGAGFANTWKAQSSCHDKLDWLDDPCSLNIESANYAEHWCSLLKKTETPFGRCHSAVDPAEYYKRCKYDTCNCQNNEDCLCAALSSYARACTAKGVMLWGWREHVCNKDVGSCPNSQVFLYNLTTCQQTCRSLSEADSHCLEGFAPVDGCGCPDHTFLDEKGRCVPLAKCSCYHRGLYLEAGDVVVRQEERCVCRDGRLHCRQIRLIGQSCTAPKIHMDCSNLTALATSKPRALSCQTLAAGYYHTECVSGCVCPDGLMDDGRGGCVVEKECPCVHNNDLYSSGAKIKVDCNTCTCKRGRWVCTQAVCHGTCSIYGSGHYITFDGKYYDFDGHCSYVAVQDYCGQNSSLGSFSIITENVPCGTTGVTCSKAIKIFMGRTELKLEDKHRVVIQRDEGHHVAYTTREVGQYLVVESSTGIIVIWDKRTTVFIKLAPSYKGTVCGLCGNFDHRSNNDFTTRDHMVVSSELDFGNSWKEAPTCPDVSTNPEPCSLNPHRRSWAEKQCSILKSSVFSICHSKVDPKPFYEACVHDSCSCDTGGDCECFCSAVASYAQECTKEGACVFWRTPDLCPIFCDYYNPPHECEWHYEPCGNRSFETCRTINGIHSNISVSYLEGCYPRCPKDRPIYEEDLKKCVTADKCGCYVEDTHYPPGASVPTEETCKSCVCTNSSQVVCRPEEGKILNQTQDGAFCYWEICGPNGTVEKHFNICSIT
notes: Mucin-2 (MUC2), human intestinal gel-forming mucin, amino-terminal D1D2D3 region, residues 21 to 1259, without CysD1; The dimers assemble into two-start helical tubules at acidic pH; also called D1D2D3 fragment; MUC2 amino-terminal fragment spanning the D1D2D3 region but lacking CysD1; source: HEK 293F, transient transfection, purified from culture medium (Ni-NTA); not shown: His6, C-terminal, …
B2: MUC2 D1D2D3, with an amino-terminal His6 tag and TEV protease cleavage site and lacking a carboxy-terminal His6 (domain or fragment, human, UniProt Q02817 21-1259, looked up)
chain: B1 chain
notes: Mucin-2 (MUC2), human, D1D2D3 region; Made by restriction-free cloning from the plasmid of m1; also called D1D2D3 fragment produced with an amino-terminal His6 tag that was removed proteolytically; source: HEK 293F, transient transfection, purified from culture medium (Ni-NTA); tag removed proteolytically during purification; not shown: His6, N-terminal, cleaved

Columns and labels:
[1] = target: the molecule itself; experiment: dynamic light scattering; MUC2 D1D2D3 at 0.3 mg/mL in 50 mM MES at varying pH, 150 mM NaCl, 37 °C; large species at pH 5.8 and below
[2] = target: the molecule itself; experiment: negative stain TEM; MUC2 D1D2D3 at 0.3 mg/mL in 50 mM MES (pH 5.4), 225 mM NaCl, 10 mM CaCl2, 37 °C for 24 h; diluted to 0.03 mg/mL, stained with 2% uranyl acetate

Protein | binding result [1] | binding result [2]
B1 | binds | 
B2 |  | binds
